{
  "source": "patent US20260097113A1",
  "about": "(Pfizer, published 2026)",
  "binders": {"B1": {"name": "AM14 (trimeric prefusion specific antibody of the AM14 ELISA) (antibody, V domains shown)", "VH": "EVQLVESGGGVVQPGRSLRLSCAASGFSFSHYAMHWVRQAPGKGLEWVAVISYDGENTYYADSVKGRFSISRDNSKNTVSLQMNSLRPEDTALYYCARDRIVDDYYYYGMDVWGQGATVTVSS", "VL": "DIQMTQSPSSLSASVGDRVTITCQASQDIKKYLNWYHQKPGKVPELLMHDASNLETGVPSRFSGRGSGTDFTLTISSLQPEDIGTYYCQQYDNLPPLTFGGGTKVEIKR", "notes": "Antibody as used in the AM14 ELISA, detected with an HRP-labeled secondary antibody"}},
  "target": "T1, RSV F protein of subtype A comprising a polypeptide of SEQ ID NO: 1 and a polypeptide of SEQ ID NO: 2 (RSV subtype A, UniProt P11209 137-513; P03420 26-109)",
  "T1 construct": "Stabilized prefusion F trimer made of three F2-F1 heterodimers; Produced recombinantly in CHO cells; also called RSV A; RSVA",
  "T1 chain 1": "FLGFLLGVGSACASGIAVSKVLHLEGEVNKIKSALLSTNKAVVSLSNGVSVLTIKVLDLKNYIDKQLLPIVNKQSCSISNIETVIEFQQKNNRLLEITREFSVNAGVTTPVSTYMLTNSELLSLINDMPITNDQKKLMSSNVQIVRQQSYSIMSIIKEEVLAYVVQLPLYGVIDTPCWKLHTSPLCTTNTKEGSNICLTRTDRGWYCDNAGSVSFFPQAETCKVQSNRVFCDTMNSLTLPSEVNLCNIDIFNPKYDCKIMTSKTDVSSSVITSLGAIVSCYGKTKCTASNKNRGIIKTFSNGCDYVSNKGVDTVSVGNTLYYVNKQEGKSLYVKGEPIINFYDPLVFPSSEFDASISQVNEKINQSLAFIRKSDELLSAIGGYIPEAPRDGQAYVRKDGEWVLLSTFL",
  "T1 chain 2": "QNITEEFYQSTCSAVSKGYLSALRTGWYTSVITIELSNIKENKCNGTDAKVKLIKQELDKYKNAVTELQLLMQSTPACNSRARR",
  "assay": "AM14 ELISA; F8 (pH 7, 50 mM NaCl, 0% sucrose); 1 wk 25°C",
  "data": [
    {"binder": "B1", "values": [
      {"measurement": "AM14 prefusion content (%), relative to standard", "value": 86, "unit": "%"}
    ]}
  ]
}
